Data taken from IntAct's records for PubMed 16452984.

B1: Rap guanine nucleotide exchange factor 4 (Mus musculus), Q9EQZ6-3 (parent)
chain: MVAAHAAHSQSSAEWIACLDKRPLERSSEDVDIIFTRLKGVKAFEKFHPNLLRQICLCGYYENLEKGITLFRQGDIGTNWYAVLAGSLDVKVSETSSHQDAVTICTLGIGTAFGESILDNTPRHATIVTRESSELLRIEQEDFKALWEKYRQYMAGLLAPPYGVMETGSNNDRIPDKENVPSEKILRAGKILRIAILSRAPHMIRDRKYHLKTYRQCCVGTELVDWMIQQTSCVHSRTQAVGMWQVLLEDGVLNHVDQERHFQDKYLFYRFLDDEREDAPLPTEEEKKECDEELQDTMLLLSQMGPDAHMRMILRKPPGQRTVDDLEIIYDELLHIKALSHLSTTVKRELAGVLIFESHAKGGTVLFNQGEEGTSWYIILKGSVNVVIYGKGVVCTLHEGDDFGKLALVNDAPRAASIVLREDNCHFLRVDKEDFNRILRDVEANTVRLKEHDQDVLVLEKVPAGNRAANQGNSQPQQKYTVMSGTPEKILEHFLETIRLEPSLNEATDSVLNDFVMMHCVFMPNTQLCPALVAHYHAQPSQGTEQERMDYALNNKRRVIRLVLQWAAMYGDLLQEDDVAMAFLEEFYVSVSDDARMMAAFKEQLPELEKIVKQISEDAKAPQKKHKVLLQQFNTGDERAQKRQPIRGSDEVLFKVYCIDHTYTTIRVPVAASVKEVISAVADKLGSGEGLIIVKMNSGGEKVVLKSNDVSVFTTLTINGRLFACPREQFDSLTPLPEQEGPTTGTVGTFELMSSKDLAYQMTTYDWELFNCVHELELIYHTFGRHNFKKTTANLDLFLRRFNEIQFWVVTEVCLCSQLSKRVQLLKKFIKIAAHCKEYKNLNSFFAIVMGLSNVAVSRLALTWEKLPSKFKKFYAEFESLMDPSRNHRAYRLTAAKLEPPLIPFMPLLIKDMTFTHEGNKTFIDNLVNFEKMRMIANTARTVRYYRSQPFNPDAAQANKNHQDVRSYVRQLNVIDNQRTLSQMSHRLEPRRP

Variants of: B1
Conditions: with rap1b_human RAP1B

Variant | effect of a mutation on the interaction
H452A | decreasing interaction strength
R886A | decreasing interaction strength
